Assay results published in the supplement of paper PMC9112550, “Optimization of the antimicrobial peptide Bac7 by deep mutational scanning” (BMC Biology, 2022).

System: Escherichia coli TOP10
Assay: shrunken log2 fold change of peptide-encoding DNA abundance (4.5 h post-induction vs induction); higher = less antimicrobial activity (less host growth inhibition)
Conditions: time post-induction: 4.5 h; library: site-saturation at positions 5, 18, 19, 20
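Note: peptides expressed intracellularly from a pBAD plasmid library in pooled LB shake-flask culture, induced with 0.3% L-arabinose, DNA abundance read by NGS, three biological replicates, DESeq2 with apeglm shrinkage.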

| Sequence | shrunken log2 fold change |
| --- | --- |
| RRIRFRPPRLPRPRPRPYCSPRP | -0.206 |
| RRIRFRPPRLPRPRPRPYDQPRP | -0.0152 |
| RRIRFRPPRLPRPRPRPYEEPRP | -0.221 |
| RRIRFRPPRLPRPRPRPYESPRP | 0.0128 |
| RRIRFRPPRLPRPRPRPYFAPRP | -0.572 |
| RRIRFRPPRLPRPRPRPYFMPRP | -1.02 |
| RRIRFRPPRLPRPRPRPYFRPRP | -0.134 |
| RRIRFRPPRLPRPRPRPYHWPRP | -0.208 |
| RRIRFRPPRLPRPRPRPYIKPRP | -1.28 |
| RRIRFRPPRLPRPRPRPYKCPRP | -0.208 |
| RRIRFRPPRLPRPRPRPYKDPRP | -0.213 |
| RRIRFRPPRLPRPRPRPYKIPRP | -0.462 |
| RRIRFRPPRLPRPRPRPYLAPRP | -0.425 |
| RRIRFRPPRLPRPRPRPYLLPRP | -1.11 |
| RRIRFRPPRLPRPRPRPYPKPRP | -0.323 |
| RRIRFRPPRLPRPRPRPYPPPRP | -0.665 |
| RRIRFRPPRLPRPRPRPYQCPRP | -0.0374 |
| RRIRFRPPRLPRPRPRPYQIPRP | -0.471 |
| RRIRFRPPRLPRPRPRPYQKPRP | -1.08 |
| RRIRFRPPRLPRPRPRPYQNPRP | -0.0547 |
| RRIRFRPPRLPRPRPRPYRGPRP | -0.384 |
| RRIRFRPPRLPRPRPRPYSDPRP | -0.298 |
| RRIRFRPPRLPRPRPRPYTWPRP | -1.05 |
| RRIRFRPPRLPRPRPRPYYCPRP | -0.74 |
| RRIRFRPPRLPRPRPRPYYLPRP | -0.392 |

| Sequence | shrunken log2 fold change |
| --- | --- |
| RRIRFRPPRLPRPRPRPYYVPRP | -0.14 |
| RRIRGRPPRLPRPRPRPAAAPRP | 2.36 |
| RRIRGRPPRLPRPRPRPAAGPRP | 1.18 |
| RRIRGRPPRLPRPRPRPADKPRP | 0.365 |
| RRIRGRPPRLPRPRPRPADNPRP | -0.0713 |
| RRIRGRPPRLPRPRPRPADTPRP | 0.0689 |
| RRIRGRPPRLPRPRPRPAEVPRP | 0.31 |
| RRIRGRPPRLPRPRPRPAEYPRP | -0.187 |
| RRIRGRPPRLPRPRPRPAFIPRP | -0.177 |
| RRIRGRPPRLPRPRPRPAHYPRP | 0.447 |
| RRIRGRPPRLPRPRPRPAIHPRP | 0.164 |
| RRIRGRPPRLPRPRPRPAINPRP | 0.419 |
| RRIRGRPPRLPRPRPRPAITPRP | 0.721 |
| RRIRGRPPRLPRPRPRPAKHPRP | 0.209 |
| RRIRGRPPRLPRPRPRPAMEPRP | 1 |
| RRIRGRPPRLPRPRPRPAMMPRP | 0.51 |
| RRIRGRPPRLPRPRPRPANVPRP | -0.126 |
| RRIRGRPPRLPRPRPRPAPHPRP | 0.95 |
| RRIRGRPPRLPRPRPRPAPLPRP | 0.893 |
| RRIRGRPPRLPRPRPRPARCPRP | 0.749 |
| RRIRGRPPRLPRPRPRPASNPRP | 0.375 |
| RRIRGRPPRLPRPRPRPATCPRP | 0.512 |
| RRIRGRPPRLPRPRPRPATFPRP | 0.326 |
| RRIRGRPPRLPRPRPRPATGPRP | 0.308 |
| RRIRGRPPRLPRPRPRPATIPRP | 0.138 |

| Sequence | shrunken log2 fold change |
| --- | --- |
| RRIRGRPPRLPRPRPRPAVWPRP | 0.71 |
| RRIRGRPPRLPRPRPRPAWGPRP | 0.268 |
| RRIRGRPPRLPRPRPRPCCMPRP | 0.474 |
| RRIRGRPPRLPRPRPRPCEFPRP | 0.0669 |
| RRIRGRPPRLPRPRPRPCGQPRP | 0.142 |
| RRIRGRPPRLPRPRPRPCGTPRP | 1.44 |
| RRIRGRPPRLPRPRPRPCHAPRP | 0.274 |
| RRIRGRPPRLPRPRPRPCHSPRP | 0.0222 |
| RRIRGRPPRLPRPRPRPCIWPRP | 0.208 |
| RRIRGRPPRLPRPRPRPCKGPRP | -0.0939 |
| RRIRGRPPRLPRPRPRPCKNPRP | 0.397 |
| RRIRGRPPRLPRPRPRPCLCPRP | 0.655 |
| RRIRGRPPRLPRPRPRPCLKPRP | 0.213 |
| RRIRGRPPRLPRPRPRPCMYPRP | 0.013 |
| RRIRGRPPRLPRPRPRPCNCPRP | 0.155 |
| RRIRGRPPRLPRPRPRPCNPPRP | -0.266 |
| RRIRGRPPRLPRPRPRPCNTPRP | 0.00375 |
| RRIRGRPPRLPRPRPRPCNWPRP | 0.101 |
| RRIRGRPPRLPRPRPRPCPCPRP | -0.0469 |
| RRIRGRPPRLPRPRPRPCPDPRP | 0.359 |
| RRIRGRPPRLPRPRPRPCPYPRP | 0.0633 |
| RRIRGRPPRLPRPRPRPCQKPRP | 0.0649 |
| RRIRGRPPRLPRPRPRPCRMPRP | 0.0426 |
| RRIRGRPPRLPRPRPRPCRNPRP | 0.0316 |
| RRIRGRPPRLPRPRPRPCSDPRP | 0.0118 |

| Sequence | shrunken log2 fold change |
| --- | --- |
| RRIRGRPPRLPRPRPRPCSHPRP | -0.112 |
| RRIRGRPPRLPRPRPRPCSTPRP | 1.14 |
| RRIRGRPPRLPRPRPRPCSWPRP | 0.19 |
| RRIRGRPPRLPRPRPRPCYGPRP | -0.277 |
| RRIRGRPPRLPRPRPRPCYSPRP | -0.0391 |
| RRIRGRPPRLPRPRPRPDANPRP | 1.99 |
| RRIRGRPPRLPRPRPRPDDGPRP | -0.0284 |
| RRIRGRPPRLPRPRPRPDDNPRP | 0.484 |
| RRIRGRPPRLPRPRPRPDGWPRP | 1.34 |
| RRIRGRPPRLPRPRPRPDHIPRP | 0.199 |
| RRIRGRPPRLPRPRPRPDHMPRP | 0.0349 |
| RRIRGRPPRLPRPRPRPDHYPRP | -0.203 |
| RRIRGRPPRLPRPRPRPDKWPRP | 0.243 |
| RRIRGRPPRLPRPRPRPDKYPRP | -0.136 |
| RRIRGRPPRLPRPRPRPDMMPRP | 0.023 |
| RRIRGRPPRLPRPRPRPDMVPRP | -0.0595 |
| RRIRGRPPRLPRPRPRPDPCPRP | 0.624 |
| RRIRGRPPRLPRPRPRPDQNPRP | 0.00612 |
| RRIRGRPPRLPRPRPRPDSHPRP | 0.0299 |
| RRIRGRPPRLPRPRPRPDTTPRP | 0.903 |
| RRIRGRPPRLPRPRPRPDVIPRP | 0.68 |
| RRIRGRPPRLPRPRPRPDYKPRP | -0.0972 |
| RRIRGRPPRLPRPRPRPDYWPRP | -0.027 |
| RRIRGRPPRLPRPRPRPEEQPRP | -0.00213 |
| RRIRGRPPRLPRPRPRPEFCPRP | 1.23 |

| Sequence | shrunken log2 fold change |
| --- | --- |
| RRIRGRPPRLPRPRPRPEFTPRP | 0.74 |
| RRIRGRPPRLPRPRPRPEGFPRP | 1.56 |
| RRIRGRPPRLPRPRPRPEGIPRP | -0.0235 |
| RRIRGRPPRLPRPRPRPEILPRP | 1.22 |
| RRIRGRPPRLPRPRPRPEIQPRP | 0.769 |
| RRIRGRPPRLPRPRPRPEIVPRP | 0.0103 |
| RRIRGRPPRLPRPRPRPEKMPRP | 0.59 |
| RRIRGRPPRLPRPRPRPENHPRP | 0.455 |
| RRIRGRPPRLPRPRPRPEPLPRP | 0.341 |
| RRIRGRPPRLPRPRPRPEPPPRP | 1.79 |
| RRIRGRPPRLPRPRPRPEQEPRP | 0.0952 |
| RRIRGRPPRLPRPRPRPERLPRP | 0.586 |
| RRIRGRPPRLPRPRPRPERMPRP | 0.251 |
| RRIRGRPPRLPRPRPRPERPPRP | 1.28 |
| RRIRGRPPRLPRPRPRPERTPRP | 1.21 |
| RRIRGRPPRLPRPRPRPETCPRP | 0.613 |
| RRIRGRPPRLPRPRPRPETRPRP | 0.109 |
| RRIRGRPPRLPRPRPRPEVHPRP | 0.141 |
| RRIRGRPPRLPRPRPRPEWYPRP | 0.243 |
| RRIRGRPPRLPRPRPRPEYDPRP | 0.0795 |
| RRIRGRPPRLPRPRPRPEYNPRP | 0.643 |
| RRIRGRPPRLPRPRPRPFAGPRP | 0.00108 |
| RRIRGRPPRLPRPRPRPFAPPRP | 1 |
| RRIRGRPPRLPRPRPRPFCGPRP | 0.224 |
| RRIRGRPPRLPRPRPRPFDKPRP | -0.663 |

| Sequence | shrunken log2 fold change |
| --- | --- |
| RRIRGRPPRLPRPRPRPFDNPRP | 0.23 |
| RRIRGRPPRLPRPRPRPFDTPRP | 0.151 |
| RRIRGRPPRLPRPRPRPFDYPRP | -0.145 |
| RRIRGRPPRLPRPRPRPFHDPRP | -0.0838 |
| RRIRGRPPRLPRPRPRPFITPRP | 0.0604 |
| RRIRGRPPRLPRPRPRPFLYPRP | -0.11 |
| RRIRGRPPRLPRPRPRPFNMPRP | -1.07 |
| RRIRGRPPRLPRPRPRPFPCPRP | -0.0294 |
| RRIRGRPPRLPRPRPRPFPKPRP | 0.0687 |
| RRIRGRPPRLPRPRPRPFRVPRP | -0.149 |
| RRIRGRPPRLPRPRPRPFSEPRP | 0.144 |
| RRIRGRPPRLPRPRPRPFTCPRP | -0.22 |
| RRIRGRPPRLPRPRPRPFVGPRP | -0.26 |
| RRIRGRPPRLPRPRPRPFVQPRP | 0.0324 |
| RRIRGRPPRLPRPRPRPFVTPRP | 0.0292 |
| RRIRGRPPRLPRPRPRPFWTPRP | 0.0497 |
| RRIRGRPPRLPRPRPRPFYIPRP | 0.0551 |
| RRIRGRPPRLPRPRPRPFYMPRP | -0.0339 |
| RRIRGRPPRLPRPRPRPGAGPRP | 1.05 |
| RRIRGRPPRLPRPRPRPGAPPRP | 1.29 |
| RRIRGRPPRLPRPRPRPGDCPRP | 0.824 |
| RRIRGRPPRLPRPRPRPGECPRP | 0.959 |
| RRIRGRPPRLPRPRPRPGELPRP | 0.61 |
| RRIRGRPPRLPRPRPRPGGAPRP | 1 |
| RRIRGRPPRLPRPRPRPGGSPRP | 0.92 |
